The text below walks through data of patent publication US20160362495A1 (E R SQUIBB AND SONS L L C, published 2016).

Substitutions are numbered along the chain they refer to.

Assay [1] concerns the target T1, human PD-L1 expressed at the cell surface (human, UniProt Q9NZQ7 19-290).
T1 construct: whole, on cells; also called cell surface PD-L1; hPD-L1
In words: flow cytometry titration on stimulated human CD4+ T cells, FITC anti-human kappa detection, FL1 GMFI. The method, then: (§1) Anti-PD-L1 antibodies were tested by flow cytometry for binding to activated human or cynomolgus monkey T cells expressing PD-L1 on their surface.
(§2) Human or monkey T cells were activated by anti-CD3 antibody to induce PD-L1 expression prior to binding with a human anti-PD-L1 monoclonal antibody. […] An isotype control antibody was used as a negative control. The cells were washed and binding was detected with a FITC-labeled antihuman Ig-kappa light chain Ab. Flow cytometric analyses were performed using a FACScalibur flow cytometer (Becton Dickinson, San Jose, Calif.).

Assay [2] addresses T2, cynomolgus monkey PD-L1 expressed on the surface of activated T cells (cynomolgus monkey, UniProt G7PSE7 19-290).
T2 construct: also called cynomolgus monkey cell surface PD-L1; stimulated cynomolgus PBMC
The assay can be described thus: flow cytometry titration on activated cynomolgus PBMC, FITC anti-human kappa detection, FL1 GMFI. The procedure:
as §1, §2
Background: In flow cytometry, cells or beads pass a laser one at a time.

The target of assay [3] is T1, human PD-L1 expressed at the cell …. The assay can be described thus: flow cytometry blocking assay: antibody titrated on IFN-gamma-treated ES-2 cells, then PD-1-hFc at 2 ug/mL, detected with biotinylated 26D5 and streptavidin-PE (FL2 GMFI). The method, then:
The blocking was compared to isotype control antibody.
ES-2 cells were induced overnight with 500 IU/mL of hIFN-γ to upregulate hPD-L1 cell surface expression. Induced cells were suspended in FACS buffer. […] Finally, bound 26D5 antibody was detected by addition of streptavidin-PE conjugate at 4° C. for 30 minutes, followed by two washes to remove unbound conjugate. Flow cytometric analysis was performed using a FACScalibur flow cytometer (Becton Dickinson, San lose, Calif.). The results are depicted in FIG. 46.

The target is the same in assay [4]. The assay can be described thus: flow cytometry titration on IFN-gamma-treated ES-2 cells, anti-human kappa detection (sheet title), FL1 GMFI.
The target in assay [5] is T3, recombinant human PD-L1 fusion protein (human PD-L1 fused to an immunoglobulin Fc region) (human, UniProt Q9NZQ7 19-238).
T3 construct: extracellular domain; also called PD-L1-Fc fusion protein; PD-L1-Ig; not shown: immunoglobulin Fc region
T3 sequence (Q9NZQ7 19-238): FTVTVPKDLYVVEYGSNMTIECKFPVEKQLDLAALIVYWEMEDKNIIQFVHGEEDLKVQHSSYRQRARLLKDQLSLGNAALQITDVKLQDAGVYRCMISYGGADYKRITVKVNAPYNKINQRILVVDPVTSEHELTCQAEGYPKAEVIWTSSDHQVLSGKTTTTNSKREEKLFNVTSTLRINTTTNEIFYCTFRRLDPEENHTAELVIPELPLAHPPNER
The assay can be described thus: Biacore equilibrium binding, 37 C.

Assay [6] has as its target T3, recombinant human PD-L1 fusion protein …. The assay can be described thus: SPR (Biacore), PD-L1 fusion protein amine-coupled to CM5 chip, antibody flowed at 133 nM, 1:1 Langmuir fit. The procedure:
Anti-PD-L1 antibodies were characterized for affinities and binding kinetics by Biacore analysis (Biacore AB, Uppsala, Sweden). […] The antigen-antibody association kinetics was followed for 1 minute and the dissociation kinetics was followed for 1 minute. The association and dissociation curves were fit to a 1:1 Langmuir binding model using BIAevaluation software (Biacore AB). To minimize the effects of avidity in the estimation of the binding constants, only the initial segment of data corresponding to association and dissociation phases were used for fitting.
A general note: Surface plasmon resonance follows binding to a sensor surface in real time, without labels.

Assay [7] has the same target. The assay can be described thus: flow cytometry blocking assay: antibody titrated against FITC-labeled PD-L1-Fc binding to CHO cells expressing human PD-1. The method, then:
Anti-PD-L1 human monoclonal antibodies were tested for the ability to block binding of the ligand PD-L1 to PD-1 expressed on transfected CHO cells by using a cell cytometry assay.
PD-1 expressing CHO cells were suspended in FACS buffer (PBS with 4% fetal calf serum). […] Flow cytometric analyses were performed using a FACScalibur flow cytometer (Becton Dickinson, San Jose, Calif.).

Assay [8] has the same target. In words: Biacore equilibrium binding, 25 C.
The target is the same in assay [9]. The assay can be described thus: ELISA on hPD-L1/Fc, HRP goat anti-human IgG (kappa chain-specific) detection. The method, then:
Standard ELISA procedures were performed. The anti-PD-L1 human monoclonal antibodies were added at different concentrations. Goat-anti-human IgG (kappa chain-specific) polyclonal antibody conjugated with horseradish peroxidase (HRP) was used as secondary antibody.
(In an ELISA, binding on a coated surface is turned into a signal by an enzyme label.)

The target of assay [10] is T1, human PD-L1 expressed at the cell …. The assay can be described thus: flow cytometry titration on CHO cells transfected with human PD-L1, FITC-labeled anti-human IgG detection. An excerpt: Chinese hamster ovary (CHO) cell lines that express recombinant human PD-L1 at the cell surface were developed and used to determine the specificity of PD-L1 human monoclonal antibodies by flow cytometry. CHO cells were transfected with expression plasmids containing full length cDNA encoding transmembrane forms of PD-L1. […] The cells were washed and binding was detected with a FITC-labeled anti-human IgG Ab. Flow cytometric analyses were preformed using a FACScan flow cytometry (Becton Dickinson, San Jose, Calif.). The binding was compared to the parent CHO cell line. […] Binding was also tested using varying concentrations of anti-PD-L1 antibody.

T2 sequence (G7PSE7 entry or part of it limits assumed): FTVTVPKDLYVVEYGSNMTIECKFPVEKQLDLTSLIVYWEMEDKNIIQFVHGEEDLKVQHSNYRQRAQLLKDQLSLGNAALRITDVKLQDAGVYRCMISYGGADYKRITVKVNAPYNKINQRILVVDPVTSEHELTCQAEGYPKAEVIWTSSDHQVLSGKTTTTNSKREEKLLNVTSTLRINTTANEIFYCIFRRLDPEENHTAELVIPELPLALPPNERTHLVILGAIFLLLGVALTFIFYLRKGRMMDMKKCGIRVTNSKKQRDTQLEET
T1 sequence (Q9NZQ7 19-290): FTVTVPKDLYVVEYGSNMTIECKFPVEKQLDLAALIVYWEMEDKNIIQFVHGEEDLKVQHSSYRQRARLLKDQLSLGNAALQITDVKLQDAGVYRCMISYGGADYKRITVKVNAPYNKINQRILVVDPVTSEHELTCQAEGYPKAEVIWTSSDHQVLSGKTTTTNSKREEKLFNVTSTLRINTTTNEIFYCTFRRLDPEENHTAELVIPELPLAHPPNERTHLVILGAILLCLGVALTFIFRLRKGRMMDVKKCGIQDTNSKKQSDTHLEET

B1: 1B12 human monoclonal antibody (antibody, V domains shown)
VH: QVQLVQSGAEVKKPGSSVKVSCKTSGDTFSSYAISWVRQAPGQGLEWMGGIIPIFGRAHYAQKFQGRVTITADESTSTAYMELSSLRSEDTAVYFCARKFHFVSGSPFGMDVWGQGTTVTVSS
VL: not shown
notes: Fully human IgG kappa antibody from a KM-mouse hybridoma
As a reminder, the EC50 is the concentration needed to bring the measured effect to its halfway point. What is called IC50 is the midpoint of a concentration-inhibition curve. Broadly, the Kd is the free concentration of one partner at which half of the binding sites on the other are occupied at equilibrium, for simple one-to-one binding. B1: the EC50 in assay [1] is 60 pM; in assay [2] it was 150 pM; in assay [4], 230 pM. This molecule came in with an IC50 in assay [3] of 210 pM. Moreover, the dissociation constant (Kd) in [5] stood at 1380 pM.

B2: 12A4 human monoclonal antibody (antibody, V domains shown)
VH: B1 VH with S31T, R57K
VL: not shown
notes: Fully human IgG kappa antibody from a KM-mouse hybridoma; also called HuMAb 12A4
In assay [2], B2 displayed an EC50 of 100 pM.

B3: 7H1 human monoclonal antibody (antibody, V domains shown)
VH: B1 VH with D27G, R57K, S77T, F95Y, F100Y, H101D, F102Y
VL: not shown
notes: as for B1
B3: the equilibrium dissociation constant (Kd) in assay [5] worked out at 2150 pM.

B4: 10A5 human monoclonal antibody (antibody, V domains shown)
VH: QVQLVQSGAEVKKPGASVKVSCKASGYTFTSYDVHWVRQAPGQRLEWMGWLHADTGITKFSQKFQGRVTITRDTSASTAYMELSSLRSEDTAVYYCARERIQLWFDYWGQGTLVTVSS
VL: DIQMTQSPSSLSASVGDRVTITCRASQGISSWLAWYQQKPEKAPKSLIYAASSLQSGVPSRFSGSGSGTDFTLTISSLQPEDFATYYCQQYNSYPYTFGQGTKLEIK
notes: Fully human IgG kappa antibody from a KM-mouse hybridoma; also called HuMAb 10A5
In general, koff refers to the rate constant with which the complex falls apart. In general, kon refers to the rate constant with which the complex forms. As a reminder, the EC50 (read off the curve) is the concentration giving half of the maximal effect. For the molecule B4, the values for the Kd in assay [6], in [8] and in assay [5] were 1450 pM, 570 pM and 2410 pM, respectively. For the same molecule, the koff in assay [6] was 0.000372 s⁻¹. The on-rate constant (kon) in assay [6] is 258000 M⁻¹ s⁻¹. The same molecule had an IC50 in [3] of 290 pM. Moreover, the “IC50 (read off the curve)” value in [7] was about 3 µg/mL. The molecule further showed an EC50 in assay [4] of 380 pM. Further, the “EC50 (read off the curve)” value was about 0.08 µg/mL in assay [9] and about 0.3 µg/mL in assay [10].

B5: 10H10 human monoclonal antibody (antibody, V domains shown)
VH: EVQLVESGGGLVQPGRSLRLSCAVSGFTFDDYVVHWVRQAPGKGLEWVSGISGNSGNIGYADSVKGRFTISRDNAKNSLYLQMNSLRAEDTALYYCAVPFDYWGQGTLVTVSS
VL: B4 VL
notes: as for B1
Take B5: the Kd in [8] turned out to be 5480 pM; in [5] it was 5930 pM.

B6: 3G10 human monoclonal antibody (antibody, V domains shown)
VH: QVQLVQSGAEVKKPGASVKVSCKASGYTFTDYGFSWVRQAPGQGLEWMGWITAYNGNTNYAQKLQGRVTMTTDTSTSTVYMELRSLRSDDTAVYYCARDYFYGMDVWGQGTTVTVSS
VL: EIVLTQSPATLSLSPGERATLSCRASQSVSSYLVWYQQKPGQAPRLLIYDASNRATGIPARFSGSGSGTDFTLTISSLEPEDFAVYYCQQRSNWPRTFGQGTKVEIK
notes: Fully human IgG kappa antibody from a KM-mouse hybridoma; also called HuMAb 3G10
Consider B6, for which the EC50 amounted to 230 pM in assay [1], 380 pM in [2] and 420 pM in [4]. Besides, the Kd in [6] was 3390 pM. Moreover, the IC50 in assay [3] was 470 pM. The “EC50 (read off the curve)” value in [9] was about 0.1 µg/mL; in [10], about 0.3 µg/mL.
